From the supplement of paper PMC10126150
± gives the standard deviation of the averaged measurements.

These sequences were tested on ATP (assay: switch fluorescence ratio, 500 uM ATP over buffer (Cy3 cluster intensity, sum of 5 cycles each) (fold (ratio)); higher = stronger signal-on switching upon ATP binding; sequences stand for … in TCGTCGGCAGCGTCAGATGTGTATAAGAGACAGTTTTTTTTTTTTTTTTTTTTTTTTT…TC). Settings: aptamer strand: ATP DNA aptamer (quencher-CACCTGGGGGAGTATTGCGGAGGAAGG + anchor), 100 nM annealed; ATP concentration: 500 uM.
In short: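 Between each of five buffer/ATP cycles, the flow-cell was stripped with NaOH and re-annealed. Each cycle imaged Cy3-labelled switching-strand clusters, annealed to 100 nM quencher-labelled ATP aptamer on a modified Illumina MiSeq flow-cell, first in selection buffer and then after 15 min with 500 uM ATP at 22 °C. The fluorescence ratio is summed target-cycle over summed buffer-cycle Cy3 intensity per cluster, averaged per switch-domain sequence, with clusters outside 100-1000 RFU excluded.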
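Note: ATP exposure 15 min at 22 °C before imaging.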

Row | Sequence | switch fluorescence ratio
1 | CCAGAGGGGG | 0.985 ± 0.067
2 | CCAGAGGGGT | 1.04 ± 0.02
3 | CCAGAGTGTT | 1.33 ± 0.04
4 | CCAGCCTTTT | 1.025 ± 0.0039
5 | CCAGCTACGG | 1.06 ± 0.053
6 | CCAGCTGTAT | 1.04 ± 0.0024
7 | CCAGCTTTTT | 0.957 ± 0.054
8 | CCAGGAATAA | 1.11 ± 0.14
9 | CCAGGAGTGT | 1.08 ± 0.012
10 | CCAGGCTCTG | 0.993 ± 0.006
11 | CCAGGGGCGC | 1.04 ± 0.017
12 | CCAGGGGCGG | 1.067 ± 0.002
13 | CCAGGGGCGT | 1.393 ± 0.012
14 | CCAGGGGTCC | 2.93 ± 2.4
15 | CCAGGGTTGG | 1.04 ± 0.048
16 | CCAGGTAGCA | 1.27 ± 0.12
17 | CCAGGTATGG | 1.05 ± 0.013
18 | CCAGGTCATA | 1.07 ± 0.011
19 | CCAGGTCCGC | 1.455 ± 0.0073
20 | CCAGTATGTG | 1.04 ± 0.054
21 | CCAGTCTGTA | 0.9492 ± 0.0057
22 | CCAGTGATGG | 1 ± 0.042
23 | CCAGTGGTTT | 1.01 ± 0.012
24 | CCATAAACTA | 1.01 ± 0.066
25 | CCATAACTTA | 0.9782 ± 0.0033

Row | Sequence | switch fluorescence ratio
26 | CCATAAGAAT | 1.01 ± 0.038
27 | CCATACAGTT | 1.01 ± 0.021
28 | CCATAGGTCC | 1.017 ± 0.0071
29 | CCATAGTTTG | 0.993 ± 0.018
30 | CCATATCGTT | 0.997 ± 0.01
31 | CCATATTCTC | 1.016 ± 0.0072
32 | CCATCTATCG | 1.03 ± 0.026
33 | CCATCTCTGG | 0.979 ± 0.022
34 | CCATGCACTG | 1.017 ± 0.0028
35 | CCATGCCGGG | 0.979 ± 0.052
36 | CCATGGGCGA | 1.1 ± 0.02
37 | CCATGGGGCT | 1.29 ± 0.46
38 | CCATGGGTTC | 1.0016 ± 0.00068
39 | CCATGGTTAT | 1.026 ± 0.0034
40 | CCATGTTGCT | 0.9612 ± 0.0059
41 | CCATTAAACT | 1.014 ± 0.008
42 | CCATTAGCAT | 2.12 ± 0.2
43 | CCATTATATC | 1.01 ± 0.047
44 | CCATTCTTCG | 1.08 ± 0.028
45 | CCATTGACGG | 1.04 ± 0.02
46 | CCATTGCACG | 1.16 ± 0.12
47 | CCATTGCTCG | 1.04 ± 0.05
48 | CCATTGTAGC | 1.03 ± 0.024
49 | CCATTTAGTT | 1.09 ± 0.12
50 | CCATTTCTTG | 0.9906 ± 0.0095

Row | Sequence | switch fluorescence ratio
51 | CCATTTTTTT | 0.997 ± 0.042
52 | CCCAAAGCGG | 1.09 ± 0.032
53 | CCCAAAGGGG | 1.04 ± 0.04
54 | CCCAATTTTG | 1.05 ± 0.069
55 | CCCAGATTAA | 1.01 ± 0.085
56 | CCCAGGGGA | 1.91 ± 1
57 | CCCAGTGGGA | 2.25 ± 1.7
58 | CCCATACTGA | 1.11 ± 0.036
59 | CCCATAGTAT | 1.01 ± 0.058
60 | CCCCACTTGC | 1.32 ± 0.11
61 | CCCCAGGAAT | 1.24 ± 0.027
62 | CCCCATTTTT | 1.06 ± 0.067
63 | CCCCGGATTT | 1.09 ± 0.098
64 | CCCCGTTAGT | 1.01 ± 0.08
65 | CCCCTTGCTC | 1.47 ± 0.058
66 | CCCCTTGGGG | 1.036 ± 0.0031
67 | CCCCTTGTGT | 2.087 ± 0.015
68 | CCCGACAGCC | 1.97 ± 0.3
69 | CCCGAGGGTT | 1.01 ± 0.017
70 | CCCGGGGCTA | 1.08 ± 0.036
71 | CCCGGGGGGG | 1.1 ± 0.13
72 | CCCGGGGTAC | 2.969 ± 0.027
73 | CCCGGGGTAT | 1.06 ± 0.057
74 | CCCGGGGTCT | 1.02 ± 0.026
75 | CCCGGGTCGC | 1.05 ± 0.012

Row | Sequence | switch fluorescence ratio
76 | CCCGGTACGG | 1.029 ± 0.0017
77 | CCCGGTGTGT | 1.65 ± 0.025
78 | CCCGGTTGAT | 1.047 ± 0.0074
79 | CCCGTATACT | 3.22 ± 1.6
80 | CCCGTCAGCG | 1.02 ± 0.041
81 | CCCGTGCTTC | 1.07 ± 0.063
82 | CCCGTGGAAA | 1.09 ± 0.1
83 | CCCTCCTTG | 1.0791 ± 6.3e-05
84 | CCCTGGCAGC | 1.3 ± 0.019
85 | CCCTTAGGGA | 1.02 ± 0.026
86 | CCCTTGATAC | 2.24 ± 0.1
87 | CCCTTTAGGG | 1.025 ± 0.0025
88 | CCGAAAAGAT | 1.44 ± 0.59
89 | CCGAAAGCCG | 1.11 ± 0.024
90 | CCGAAATGGG | 1.5 ± 0.07
91 | CCGAACTTTT | 1.07 ± 0.075
92 | CCGAAGAGTC | 1.66 ± 0.28
93 | CCGAATTGTA | 1.03 ± 0.016
94 | CCGACCAGGG | 1.3 ± 0.13
95 | CCGACTAAAA | 4.27 ± 0.41
96 | CCGAGAAAAA | 1.12 ± 0.14
97 | CCGAGAATCG | 1.02 ± 0.036
98 | CCGAGCGGGA | 1.77 ± 0.37
99 | CCGAGGGGGT | 1.81 ± 1.1
100 | CCGATGGGCC | 1.22 ± 0.028

Row | Sequence | switch fluorescence ratio
101 | CCGATTGTGT | 1.11 ± 0.017
102 | CCGCAGAGTG | 3.98 ± 2.1
103 | CCGCCAGGTC | 2.55 ± 0.13
104 | CCGCCTTGGG | 1.09 ± 0.029
105 | CCGCGACGGG | 1.69 ± 0.48
106 | CCGCGCCGAT | 1.37 ± 0.16
107 | CCGCGGGGTG | 2.2 ± 0.77
108 | CCGCGGGTTT | 1.08 ± 0.075
109 | CCGCGTCGCT | 1.317 ± 0.0055
110 | CCGCTAGGGC | 2.1 ± 1.2
111 | CCGCTTCCGG | 1.08 ± 0.018
112 | CCGGAAGACG | 1.39 ± 0.18
113 | CCGGAAGAGA | 1.09 ± 0.035
114 | CCGGACCAGA | 1.15 ± 0.057
115 | CCGGACTATC | 2.4 ± 0.086
116 | CCGGACTTGG | 0.96 ± 0.09
117 | CCGGATTAA | 1.02 ± 0.039
118 | CCGGCGCGTT | 1.96 ± 1.3
119 | CCGGCGGGCT | 1.05 ± 0.013
120 | CCGGCGGTTG | 1 ± 0.012
121 | CCGGCTTACG | 1.2 ± 0.1
122 | CCGGGAGGAT | 0.987 ± 0.035
123 | CCGGGAGTTA | 1.15 ± 0.034
124 | CCGGGCGACA | 1.11 ± 0.031
125 | CCGGGCGGGG | 1.07 ± 0.018

Row | Sequence | switch fluorescence ratio
126 | CCGGGCGTA | 1.15 ± 0.083
127 | CCGGGGAAGG | 1.04 ± 0.0092
128 | CCGGGGGAGG | 1.06 ± 0.048
129 | CCGGGGGGAA | 1.03 ± 0.063
130 | CCGGGGGGCG | 0.976 ± 0.053
131 | CCGGGGGGTT | 1.09 ± 0.14
132 | CCGGGGTACA | 1.17 ± 0.17
133 | CCGGGGTGTG | 1.08 ± 0.012
134 | CCGGGTTAGT | 1.06 ± 0.017
135 | CCGGGTTGTA | 1.02 ± 0.046
136 | CCGGGTTTGG | 0.984 ± 0.017
137 | CCGGGTTTTG | 1.017 ± 0.0016
138 | CCGGTAGGGA | 1.01 ± 0.021
139 | CCGGTCTGGC | 1.01 ± 0.013
140 | CCGGTCTTTT | 0.961 ± 0.018
141 | CCGGTGACGA | 1.053 ± 0.0041
142 | CCGGTGGGGT | 1.01 ± 0.03
143 | CCGGTGTGCC | 1.01 ± 0.052
144 | CCGGTTCATT | 1.0368 ± 0.00072
145 | CCGGTTTGGG | 0.988 ± 0.042
146 | CCGTAACGGG | 1.09 ± 0.085
147 | CCGTAATATT | 3.69 ± 1.8
148 | CCGTAATGGG | 1.85 ± 0.038
149 | CCGTAGAATT | 1.68 ± 0.046
150 | CCGTATAGCT | 1.24 ± 0.039

Row | Sequence | switch fluorescence ratio
151 | CCGTCTCTCC | 1.73 ± 0.093
152 | CCGTGATATG | 2.492 ± 0.0084
153 | CCGTGATGGG | 1.14 ± 0.066
154 | CCGTGCACAT | 2.679 ± 0.0035
155 | CCGTGCTCTA | 1.281 ± 0.0015
156 | CCGTGGAAAG | 1.02 ± 0.027
157 | CCGTGGCGCA | 1.88 ± 0.21
158 | CCGTGGTAGG | 1.01 ± 0.018
159 | CCGTTATAGT | 1.795 ± 0.012
160 | CCGTTCCCGT | 1.13 ± 0.028
161 | CCGTTGGGTG | 1.12 ± 0.071
162 | CCGTTGGTAA | 1.345 ± 0.0022
163 | CCGTTGTCTT | 1.03 ± 0.025
164 | CCGTTTCCGG | 1.02 ± 0.027
165 | CCGTTTCTGG | 1 ± 0.063
166 | CCGTTTGGGA | 0.998 ± 0.032
167 | CCGTTTTCGG | 0.952 ± 0.053
168 | CCTAAAGTAG | 1.017 ± 0.0071
169 | CCTAAATACC | 1.29 ± 0.25
170 | CCTAAATGGG | 1.01 ± 0.077
171 | CCTAACAGGA | 1.01 ± 0.04
172 | CCTAAGGGGG | 1.04 ± 0.074
173 | CCTAATGCAG | 1.11 ± 0.049
174 | CCTACCCTCC | 3.05 ± 0.22
175 | CCTACGTGGT | 4.49 ± 0.15

Row | Sequence | switch fluorescence ratio
176 | CCTAGGGGTC | 1.09 ± 0.028
177 | CCTAGGGGTG | 1.32 ± 0.27
178 | CCTAGGGTCA | 1.01 ± 0.018
179 | CCTAGGGTTC | 0.984 ± 0.01
180 | CCTAGTTGTG | 1.02 ± 0.016
181 | CCTATGCGGT | 2.6 ± 0.067
182 | CCTATGCTTC | 3.38 ± 1.7
183 | CCTATGGGGT | 0.974 ± 0.024
184 | CCTATGGTAG | 1.014 ± 0.0099
185 | CCTATTATTG | 0.98 ± 0.028
186 | CCTATTGTAT | 1.02 ± 0.033
187 | CCTATTGTGG | 0.993 ± 0.015
188 | CCTATTTGTA | 0.974 ± 0.051
189 | CCTCAAAGGG | 1.38 ± 0.18
190 | CCTCGCTGAG | 3.48 ± 0.98
191 | CCTCGGGGGT | 1.02 ± 0.04
192 | CCTCGGGTTA | 1.42 ± 0.038
193 | CCTCTATATT | 1.181 ± 0.011
194 | CCTCTTTTTG | 1.02 ± 0.011
195 | CCTGAAGACA | 1 ± 0.02
196 | CCTGAGGGAC | 0.99 ± 0.03
197 | CCTGAGGGGA | 1.16 ± 0.2
198 | CCTGAGGTTA | 1.03 ± 0.096
199 | CCTGATCACC | 1.063 ± 0.0098
200 | CCTGATGGTA | 1.03 ± 0.025
